In PMC314469, “Protein Interaction Networks by Proteome Peptide Scanning” (PLoS Biology, 2004):

T1: Abp1 SH3 (ABP1_YEAST), P15891
T1 chain: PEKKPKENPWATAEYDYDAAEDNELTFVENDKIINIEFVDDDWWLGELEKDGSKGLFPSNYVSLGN


Target: T1, Abp1 SH3 (ABP1_YEAST), P15891
Experiment: SPOT array

Binder	normalised SPOT signal, Boehringer light units (BLU); mean over the file's lines of this peptide
EGSQSVPIEIPKKP [YLR081W 51-64]	132
DSSLQHQQRQPKRP [YJR147W 209-222]	105
DVMKQSFPRLIKP [YPL073C 93-105]	2470
EGKNEETPQNEKP [YKL144C 179-191]	126
EKASRFRPTIDRP [YJL196C 11-23]	910
DVLFSYFPITFKP [YIL128W 218-230]	32.1
EETIVFLQSDPSRP [YDR127W 1000-1013]	50.7
DSVLRQKPDKPRP [YMR032W 380-392]	380
DSIWPDFETLPERP [YLL029W 272-285]	0
ELQKRVGPDNFKP [YKL155C 149-161]	130
EKTGNAHPLGFRP [YPR016W-A 66-78]	124
DVPNTAGPHIARP [YOR028C 108-120]	144
EHFDIPPPAIMKP [YOR116C 588-600]	106
EEEIELPPGVKKP [YFL004W 659-671]	77.1
DSSSANGKFIPSRP [YHL007C 462-475]	98.6
DTNDIKTPHPERP [YER169W 627-639]	77.3
ELNLKLLNLFPSKP [YGR134W 1043-1056]	164

Binder	normalised SPOT signal, Boehringer light units (BLU); mean over the file's lines of this peptide
EFRKSDEPVSVKP [YBR237W 77-89]	69.6
DVKKEQAPEGKRP [YDL213C 31-43]	94.6
EKEKEKSPEISKP [YNR051C 181-193]	67.3
ELKERDFDQAPLKP [YCR088W 207-220]	89.2
EESKARSPGIAKP [YDR227W 268-280]	404
EKGQALVVFSPHRP [YLR285W 193-206]	182
ELFIIIQPPVMKP [YIR007W 413-425]	98.8
DVAQPGGVAKPKKP [YNL298W 506-519]	62
EDDTNPQLLEPVKP [YDR528W 157-170]	86.1
EGQVLYDPEPFKP [YNL086W 59-71]	128
EEFDSYSRSRPTRP [YNL165W 290-303]	254
EHSRVKLPHSPKP [YOR208W 421-433]	395
EHMLYIIPPQIKP [YIL103W 218-230]	96.5
EEFPEIIPLQQRP [YPL117C 30-42]	145
EEKAKAVNELPTKP [YGR037C 7-20]	188
EGGAYIIPNFGKP [YPR184W 920-932]	4.8
EKVYRTEEKAPIRP [YDL203C 183-196]	38.6

Other lines, results leading:

normalised SPOT signal, Boehringer light units (BLU); mean over the file's lines of this peptide	Binder
25.6	DVITHFGPDADKP [YBL035C 6-18]
108	EEPEDFLPPPPKP [YLR285W 15-27]
72.6	EFTDMEIPDSVKP [YKL010C 660-672]
145	DWALLRNQNDPQKP [YLR357W 414-427]
144	EDFKDTKPVHKKP [YOR287C 64-76]
248	EIQNGKRPVLLKP [YIR007W 368-380]
0	EIERHETPLNIRP [YGR267C 9-21]
113	DVDSSSTPFGTKP [YIL115C 681-693]
97.9	EHAVANGPSHRRP [YBL101C 762-774]
299	DSKGARFLPAPHRP [YGR154C 60-73]
36.2	EDEEGPPPAMPARP [YBL007C 188-201]
81.5	EEEEGEVLLPPSRP [YLR079W 130-143]
140	DVGSTIPYDFPEKP [YGL212W 55-68]
13.6	EIFPNSKPLQPKP [YJL010C 631-643]
80.9	EKARNVEYKKPQKP [YCL061C 306-319]
140	EKHELIIPTPSKP [YCL027W 384-396]
3010	EALKQKKIPPPFKP [YHR205W 677-690]
126	EIELLVDSKDPNKP [YLL040C 1996-2009]
394	DTERLKRDLSPRKP [YBL111C 228-241]
83.3	DSIAKLQPQVYKP [YFR037C 542-554]
68.9	DVIISPTTLMPFRP [YDR242W 443-456]
130	DTKRLGTPESVKP [YLR071C 1030-1042]
118	EFRQEIIDRVPLRP [YMR027W 61-74]
135	DTLYINGIRIPYRP [YPR032W 898-911]
1490	EKFRVNRPIQLRP [YHL038C 520-532]
